Like-named read-outs stand apart in the source and are kept apart here.
How the values were obtained:
[1] = biological target: GST-TIPT2 (TATA-binding protein-like factor-interacting protein, isoform 2) (mouse) (UniProt Q6P926)
TBP [2] = biological target: T1, TBP (human, UniProt P20226 1-339); settings: protein: recombinant
[3] = biological target: T2, GST-TIPT2 (TIPT isoform 2) (mouse, UniProt Q6P926 1-205); settings: protein: recombinant; tags: N-terminal GST; label: radiolabel
T2 sequence: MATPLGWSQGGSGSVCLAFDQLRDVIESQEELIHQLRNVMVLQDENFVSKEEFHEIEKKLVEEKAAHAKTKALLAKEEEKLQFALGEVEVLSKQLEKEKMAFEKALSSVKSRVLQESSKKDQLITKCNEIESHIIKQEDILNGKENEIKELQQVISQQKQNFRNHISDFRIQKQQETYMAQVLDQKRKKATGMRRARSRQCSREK

[4] = biological target: T2, GST-TIPT2 (TIPT isoform 2); settings: protein: recombinant, tags: N-terminal GST
[5] = biological target: T2, GST-TIPT2 (TIPT isoform 2); settings: protein: recombinant; tags: N-terminal GST
TBP [6] = biological target: T1, TBP; settings: protein: recombinant; label: radiolabel

T1 sequence (P20226 whole entry, canonical isoform): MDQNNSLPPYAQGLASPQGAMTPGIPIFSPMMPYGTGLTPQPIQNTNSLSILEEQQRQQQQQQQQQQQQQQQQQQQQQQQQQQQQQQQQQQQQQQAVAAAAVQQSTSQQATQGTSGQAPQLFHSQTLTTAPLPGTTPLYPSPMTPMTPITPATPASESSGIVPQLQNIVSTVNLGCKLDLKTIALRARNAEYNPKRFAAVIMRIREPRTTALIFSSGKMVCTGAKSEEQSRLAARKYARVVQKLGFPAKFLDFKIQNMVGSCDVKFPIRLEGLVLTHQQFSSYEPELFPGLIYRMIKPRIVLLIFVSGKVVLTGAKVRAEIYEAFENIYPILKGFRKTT

in vitro translated geminin (from UniProt O88513 1-206) (natural protein)
luciferase reporter in U2OS cells: activation of the AdMLP, co-transfection of geminin with TIPT2 [1]: 11 fold | luciferase reporter in U2OS cells: activation of the AdMLP, triple transfection of TBP, TIPT2 and geminin [1]: 16 fold

B1: AdE4 (dsDNA)
DNA 1: GATCCGGAGTATATATAGGACCTTG
DNA 2: CAAGGTCCTATATATACTCCGGATC
binding result (TBP [2]; label: radiolabel): binds | binding result [3]: no binding

B2: AdMLPm2 (dsDNA)
DNA 1: AATTGGGGCTATAAAAGGGGGTGGG
DNA 2: CCCACCCCCTTTTATAGCCCCAATT
binding result [4]: binds

B3: AdMLPm9 (dsDNA)
DNA 1: AAGGGGGGCTATAAAAGGGGGTTTT
DNA 2: AAAACCCCCTTTTATAGCCCCCCTT
binding result [4]: binds

B4: AdMLPm8 (dsDNA)
DNA 1: AAGGGGGGCTATAAAAGGGGTGGGG
DNA 2: CCCCACCCCTTTTATAGCCCCCCTT
binding result [4]: binds

B5: AdMLP (-40 to -16) (dsDNA)
DNA 1: AAGGGGGGCTATAAAAGGGGGTGGG
DNA 2: CCCACCCCCTTTTATAGCCCCCCTT
binding result (TBP [2]): binds | binding result [4]: binds

B6: AdMLPm5 (dsDNA)
DNA 1: AAGGGGGGTGATAAAAGGGGGTGGG
DNA 2: CCCACCCCCTTTTATCACCCCCCTT
binding result [5]: binds

B7: AdMLPm1 (dsDNA)
DNA 1: AAGGGGGGCTGTAAAAGGGGGTGGG
DNA 2: CCCACCCCCTTTTACAGCCCCCCTT
binding result ([4]; label: radiolabel): binds | binding result (TBP [6]): no binding

B8: AdMLPm7 (dsDNA)
DNA 1: AAGGGGGGCTATAAAAGGTTGTGGG
DNA 2: CCCACAACCTTTTATAGCCCCCCTT
binding result [4]: binds

B9: AdMLPm4 (dsDNA)
DNA 1: AAGGGGTTCTATAAAAGGGGGTGGG
DNA 2: CCCACCCCCTTTTATAGAACCCCTT
binding result [4]: binds

B10: AdMLPm6 (dsDNA)
DNA 1: AAGGGGGGCTATAAAATTGGGTGGG
DNA 2: CCCACCCAATTTTATAGCCCCCCTT
binding result [4]: binds

Source: article PMC2702275, “TIPT2 and geminin interact with basal transcription factors to synergize in transcriptional regulation”
